Reference: the supplement of paper PMC10567573

B1: MIA2 (parent)
chain: SVIEPVQESSFRSRKIAVEDENDL

Variants of: B1
Experiment: protein stability index of a GFP-peptide fusion (GPS, HEK-293T) (PSI 1-6); higher = more stable
Settings: c terminus: a fixed tail appended
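Further: lentivirally expressed fusions sorted by FACS into six bins by GFP to DsRed ratio, PSI derived from sequencing read proportions per bin multiplied by bin number.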

Variant	protein stability index
SVIEPVQESSFSSRKIAVEDENDL [R12S]	5.94
SVIEPVQESSFQSRKIAVEDENDL [R12Q]	5.44
SVIEPVQESSFKSRKIAVEDENDL [R12K]	5.42
SVIEPVQESSFISRKIAVEDENDL [R12I]	5.12
SVIEPVQESSFHSRKIAVEDENDL [R12H]	5.66
SVIEPVQESSFNSRKIAVEDENDL [R12N]	5.61
SVIEPVQESSFYSRKIAVEDENDL [R12Y]	4.98
SVIEPVQESSFDSRKIAVEDENDL [R12D]	5.6
SVIEPVQESSFLSRKIAVEDENDL [R12L]	5.22
SVIEPVQESSFPSRKIAVEDENDL [R12P]	6
SVIEPVQESSFASRKIAVEDENDL [R12A]	5.81
SVIEPVQESSFVSRKIAVEDENDL [R12V]	5.36
SVIEPVQESSFWSRKIAVEDENDL [R12W]	4.55
SVIEPVQESSFMSRKIAVEDENDL [R12M]	5.41
SVIEPVQESSFGSRKIAVEDENDL [R12G]	5.53
SVIEPVQESSFCSRKIAVEDENDL [R12C]	4.82
SVIEPVQESSFESRKIAVEDENDL [R12E]	5.75
SVIEPVQESSFFSRKIAVEDENDL [R12F]	4.83
SVIEPVQESSFTSRKIAVEDENDL [R12T]	5.46
SVIEPVQFSSFRSRKIAVEDENDL [E8F]	4.63
SVIEPVQSSSFRSRKIAVEDENDL [E8S]	4.42
SVIEPVQCSSFRSRKIAVEDENDL [E8C]	4.97
SVIEPVQVSSFRSRKIAVEDENDL [E8V]	5.14
SVIEPVQKSSFRSRKIAVEDENDL [E8K]	4.78

Variant	protein stability index
SVIEPVQYSSFRSRKIAVEDENDL [E8Y]	4.49
SVIEPVQISSFRSRKIAVEDENDL [E8I]	4.83
SVIEPVQTSSFRSRKIAVEDENDL [E8T]	4.52
SVIEPVQLSSFRSRKIAVEDENDL [E8L]	5.02
SVIEPVQNSSFRSRKIAVEDENDL [E8N]	5.64
SVIEPVQRSSFRSRKIAVEDENDL [E8R]	4.79
SVIEPVQMSSFRSRKIAVEDENDL [E8M]	4.58
SVIEPVQHSSFRSRKIAVEDENDL [E8H]	5.02
SVIEPVQWSSFRSRKIAVEDENDL [E8W]	4.66
SVIEPVQDSSFRSRKIAVEDENDL [E8D]	4.48
SVIEPVQGSSFRSRKIAVEDENDL [E8G]	5.28
SVIEPVQPSSFRSRKIAVEDENDL [E8P]	5.27
SVIEPVQQSSFRSRKIAVEDENDL [E8Q]	5.1
SVIEPVQASSFRSRKIAVEDENDL [E8A]	5.28
SVIEPVQESSFRSRKCAVEDENDL [I16C]	4.17
SVIEPVQESSFRSRKSAVEDENDL [I16S]	5.45
SVIEPVQESSFRSRKYAVEDENDL [I16Y]	4.98
SVIEPVQESSFRSRKFAVEDENDL [I16F]	5.12
SVIEPVQESSFRSRKLAVEDENDL [I16L]	5.13
SVIEPVQESSFRSRKQAVEDENDL [I16Q]	5.15
SVIEPVQESSFRSRKWAVEDENDL [I16W]	4.66
SVIEPVQESSFRSRKHAVEDENDL [I16H]	4.28
SVIEPVQESSFRSRKEAVEDENDL [I16E]	5.19
SVIEPVQESSFRSRKDAVEDENDL [I16D]	5.68

Variant	protein stability index
SVIEPVQESSFRSRKGAVEDENDL [I16G]	5.42
SVIEPVQESSFRSRKNAVEDENDL [I16N]	5.6
SVIEPVQESSFRSRKTAVEDENDL [I16T]	5.37
SVIEPVQESSFRSRKMAVEDENDL [I16M]	5.42
SVIEPVQESSFRSRKKAVEDENDL [I16K]	5.01
SVIEPVQESSFRSRKPAVEDENDL [I16P]	5.04
SVIEPVQESSFRSRKRAVEDENDL [I16R]	5.22
SVIEPVQESSFRSRKVAVEDENDL [I16V]	5.41
SVIEPVQESSFRSRKAAVEDENDL [I16A]	4.72
SVIEPVQESSFRARKIAVEDENDL [S13A]	5.65
SVIEPVQESSFRFRKIAVEDENDL [S13F]	5.03
SVIEPVQESSFRYRKIAVEDENDL [S13Y]	5.12
SVIEPVQESSFRPRKIAVEDENDL [S13P]	5.18
SVIEPVQESSFRIRKIAVEDENDL [S13I]	5.11
SVIEPVQESSFRWRKIAVEDENDL [S13W]	4.72
SVIEPVQESSFRDRKIAVEDENDL [S13D]	5.05
SVIEPVQESSFRTRKIAVEDENDL [S13T]	5.66
SVIEPVQESSFRLRKIAVEDENDL [S13L]	5.19
SVIEPVQESSFRERKIAVEDENDL [S13E]	5.3
SVIEPVQESSFRHRKIAVEDENDL [S13H]	5.25
SVIEPVQESSFRCRKIAVEDENDL [S13C]	5.05
SVIEPVQESSFRVRKIAVEDENDL [S13V]	5.23
SVIEPVQESSFRQRKIAVEDENDL [S13Q]	5.03
SVIEPVQESSFRNRKIAVEDENDL [S13N]	5.61

Variant	protein stability index
SVIEPVQESSFRMRKIAVEDENDL [S13M]	4.86
SVIEPVQESSFRKRKIAVEDENDL [S13K]	5.18
SVIEPVQESSFRGRKIAVEDENDL [S13G]	5.44
SVIEPVQESSFRRRKIAVEDENDL [S13R]	5.53
SVIEPVQESSFRSRKITVEDENDL [A17T]	5.09
SVIEPVQESSFRSRKIGVEDENDL [A17G]	5.14
SVIEPVQESSFRSRKIDVEDENDL [A17D]	5.43
SVIEPVQESSFRSRKIIVEDENDL [A17I]	5.05
SVIEPVQESSFRSRKIRVEDENDL [A17R]	4.77
SVIEPVQESSFRSRKIEVEDENDL [A17E]	5.68
SVIEPVQESSFRSRKIVVEDENDL [A17V]	5.3
SVIEPVQESSFRSRKIPVEDENDL [A17P]	5.66
SVIEPVQESSFRSRKIMVEDENDL [A17M]	5.55
SVIEPVQESSFRSRKISVEDENDL [A17S]	4.86
SVIEPVQESSFRSRKICVEDENDL [A17C]	4.81
SVIEPVQESSFRSRKILVEDENDL [A17L]	4.97
SVIEPVQESSFRSRKIHVEDENDL [A17H]	5.53
SVIEPVQESSFRSRKIKVEDENDL [A17K]	5.59
SVIEPVQESSFRSRKIQVEDENDL [A17Q]	5.44
SVIEPVQESSFRSRKINVEDENDL [A17N]	5.45
SVIEPVQESSFRSRKIFVEDENDL [A17F]	5.05
SVIEPVQESIFRSRKIAVEDENDL [S10I]	4.28
